# Experimental data taken from the DeepSol protein solubility set.
# Test: soluble on expression in E. coli; label from the status in PepcDB or PDB records
row,Sequence,soluble on expression in E. coli
1,MHRRRSGPTSQPLARGERGLPANRSFASLIAWLTSVRLLCRSPPFCCFYSLSTYTTVMYTDGQYDYDVAVVGGGPAGLTSALYTSRLGMDTIVINRGGGRAAMMTDTHNVIGVTEDVSGNEFLETAREQVQDYGGTYERGFVESVDPLADEEDGFTVTTSDGELAVKRVVLATGFADERPDPPLPRTGKGLHWCLHCDAFMFVGEPVFVMGTGEAAAHVAMIMLNYTDDVDILTRGETPEWSDETQTMLDNHPVEIVETELSGKQTDDDGWLSAYEFEDGSVREYKGGFPMLGSDYHAELADELGLDRNDDGTVAVDDHGETSVSGVYAVGDLTPGHNQIPIAMGEGADAGIAIHKDLRKYPRSVDDIESEGAVEDVEVPAVSEELFATALTHEGHAAGPRSEEAPEVRADDDLEHHHHHH,not soluble
2,MHSEVTPIHHYKKYWAECFGTAPFLPTSREEMDQLGWDSCDVIIVTGDAYVDHPSFGMAIIGRLLEAQGFRVGIIAQPEWQTKDAFMTLGKPNLFFGVTAGNMDSMINRYTADKKIRHDDAYTPNNKGGMRPDRCSLVYSQRCREAYKDVPIVLGGIEASLRRVAHYDYWSDKVRRSILLDAKADILLFGNAERALVEVAHRLANGESINKMVDIRGTAVNLAQVPEHFKIIDSTRIDQPNKPFVPSNPYEVETQCATKGDEKEEAQPITIRPSRHDAKTTAVRLPSFEKLVNDRILYAHASRVLHLETNPYSGRALVQRHGDRELWVNQAPIPLTTEEMDFVFGLYYARVPHPKYGDAKIPAYDMIKTS,soluble
3,MHVWPVQDAKARFSEFLDACITEGPQIVSRRGAEEAVLVPIGEWRRLQAAARPSLKQLLLSDSARTEMLVPERGKARRRQVEPLR,soluble
4,MHWQTHTVFNQPIPLNNSNLYLSDGALCEAVTREGAGWDSDFLASIGQQLGTAESLELGRLANVNPPELLRYDAQGRRLDDVRFHPAWHLLMQALCTNRVHNLAWEEDARSGAFVARAARFMLHAQVEAGSLCPITMTFAATPLLLQMLPAPFQDWTTPLLSDRYDSHLLPGGQKRGLLIGMGMTEKQGGSDVMSNTTRAERLEDGSYRLVGHKWFFSVPQSDAHLVLAQTAGGLSCFFVPRFLPDGQRNAIRLERLKDKLGNRSNASCEVEFQDAIGWLLGLEGEGIRLILKMGGMTRFDCALGSHAMMRRAFSLAIYHAHQRHVFGNPLIQQPLMRHVLSRMALQLEGQTALLFRLARAWDRRADAKEALWARLFTPAAKFVICKRGMPFVAEAMEVLGGIGYCEESELPRLYREMPVNSIWEGSGNIMCLDVLRVLNKQAGVYDLLSEAFVEVKGQDRYFDRAVRRLQQQLRKPAEELGREITHQLFLLGCGAQMLKYASPPMAQAWCQVMLDTRGGVRLSEQIQNDLLLRATGGVCV,soluble
5,MHYFSEKPTTKSDVKIVEDILRGKKLKFKTDSGVFSYGKVDKGTKILVENVVVDKDDDILDLGCGYGVIGIALADEVKSTTMADINRRAIKLAKENIKLNNLDNYDIRVVHSDLYENVKDRKYNKIITNPPIRAGKEVLHRIIEEGKELLKDNGEIWVVIQTKQGAKSLAKYMKDVFGNVETVTIKGGYRVLKSKKL,soluble
6,MIAGATAPSSQHEILIASNLIKKPSTSQNKTPTAQSSSGNNGAADGAPQGYHHHHHHHRHLWWPRTTDHQYWCVLRKNQFAYYKTRDEREAISVIPRFDILNFKISELDGILTVYTPSKDLIFKFPRGQNEKVGMELMHNWKIALEKFLSSPSGNESVTTGSDYDEEEDDDDLIVVDEKAGPSSSKHSCSLTMDEQLSREDKEFYRMFDPRNAEHQVCSGILYTKVKKKKLFNRAKWQKFNVELTNTSFNLYSFKTGKLKKSIKLDKIIDCIELDNNSKMKNDDTNFALITFDERLSFKAANDQDMVDWIINFKSGILIRKKLKAENI,soluble
7,MICNCFLLIIVTLVISNCDGICLNHEGWGNVGSVFTDPLCNVWCEIKLCGPGQCIEDPMTTAPARCVCEKCYRDNSGNAVYPGGNNDYQQQAQMNRERQLDRQYNRQLRQQNRMNKAWQRGWQ,not soluble
8,MIDDDGYRPNVGIVICNRQGQVMWARRFGQHSWQFPQGGINPGESAEQAMYRELFEEVGLSRKDVRILASTRNWLRYKLPKRLVRWDTKPVCIGQKQKWFLLQLVSGDAEINMQTSSTPEFDGWRWVSYWYPVRQVVSFKRDVYRRVMKEFASVVMSLQENTPK,soluble
9,MIDDIRYLIVFAKIAETGSVSGGAEALGLSAATASLHLSRLERNLGRALLYRNSRKLSLTQDGTQLLDTARSMLELYEKGFIEFRQRAVSTRNSLRISMPAVFVNGDFTRHLAAFIEEHPDLDLGIACDDSRHDIIGDGIDIAFRIGDLPDSSLKARHLFLLPRQVVAAPAFLARHAPLEHPRDLQRLEWIGLGMRPDSRLFRHARDDEEVRVDYTPRVRVDSVEASCRLARLGVGLAAPPTYLSDEPIRRGELRAVLPEWRLEPLKVYAVWPPNVPASSIAYTLINRLYEAFNPG,not soluble
10,MIDHLSRAVISDPEQNLAIEQKESDHILPDSKMTPLRFRKRTLHETKIRTHSTLTENVLSHKLQFDGRIVSRTNVLPFIQKSIYSHQCGRRKGKQYRLGDFYVGATLTFLSSDHLSLPESIKENTLLKLRITNIDQIALDSLKTASMEQEDDIIIQETNDRLVFKAIQDVLKEKLHKRGVRILTGLGKYFQQLDKEGNGLLDKADFKQALKVFHLEVSEKDFESAWLILNDNGNGKVDYGEFKRGIIGEMNEYRKSYVRKAFMKLDFNKSGSVPIINIRKCYCAKKHSQVISG,soluble
11,MIDKIVFEEDEEYDLTQDSFRYGRVTTGASYNLVTGKIPETVLEQVKAKDDENDDVEFEMDHLEDKEAVQKTKTFDELYESQMPKYFEYQSNFSEVNGIWTLLFDQNHYENMSTFELQAAICAALNSKHYMMICVGIDAFNAVTGVEMSAKDRVVFRMALTRAVAGEFQPPLVKVAPKQLTGVSPMKRDISEVTSSIDVLFIPVIGVTDEVENNRFLIVVRVKEISDKVYQISSGRIYNELEGRVVEMSDMNEAFHKLIVEQSISDIQTRRGSMFMLEPEPFLEDSPVIFTGSKEILRENHEIPNILKENSTERSLSQSLLNLLDIQNIGWIFFGTALSCCIYNNAIKPLVK,not soluble
12,MIDQHQYIERESGSVCNERLFGDRLIRLLYHGARENAPFLFKMATSSWSSGLLGFINFDLPFGSNRRFLEECGVDLDECLDPPESLDTPRKVFERRIRYEQCRPMPEVQWAVVSPADARVLVGSFRDTSALFLKEKFFDFEELLGRHKEEWLRAFTGGEFAVFRLTPDKYHYNHTPVAGTVRDIYEIDGGYHSCNPGAVVIEATPFSKNRRVVTVIDTDVPGGTGVGLVAMIEVVALMIGQIVQCYSYEGYTAPRPVEPGMFLRRGVPKSLYRPGSSTDVLIFQRDRMHFADDIVRNMHDTRAASRFSHGFGRPLVETDVKVRSLIAVAVTNLEHHHHHH,not soluble
13,MIEIAKIGDDFDRWQDLLALIMTSFAYMDGVIDPPSSAYRLTLENLAEKARAEIAFVALDSDELLGCLFCRPEPPASLYVGKLCVSPKAQGKGIGKLLLLQAEALARELALPALRLETRIELLSNHTKFAAWGFVKTAENAHAGYDRTTSIEMTKFLG,not soluble
14,MIEKDVVQILKAVSEFYPGRFQPDDLKGTVKAWHRVLAEYELEEIMNNLTDYAKVNKFPPTVSDLLKAQSEQRDRFIPSYEETQRILKEQAEAEEAARNDPDLQAAQEENMRKIREMLGINRGGAR,soluble
15,MIELEVFPHRYLKAETTEKFLNRAYSLSKVQRVVIHGESLPNKVGYGPAKGTPVNHSEKKEITVKGVPVELMLQVGRLWVLLDDESEIEKIEEICKDLFPFGYRLTKGKFLRNDPTVSDFIKYGESAVDDIDKRLLGATDPRSKFDSSVTIIPKSEKNELEHHHHHH,soluble
16,MIFYFSGTGNSKWIANQLSKEQQEDLFFIPDAWKNDTWEFSLREDEKIGFVFPVYSWAPPVIVQEFIRKLVLKGYQQQYLFFVCSCGDDTGLTRQVMEKALAARGWRCNAGFSVIMPNNYVLFLGFDVDSKELEKKKLAEAVPALEKVSRLITGRETVFACKEGSLPFIKTRIINPLFVRYQMSPKPFHATSECIGCKRCEKSCPVGNITMKERRPVWGKNCTACLACYHVCPQHAVQYGKKTKGKGHYFNPDSAY,not soluble
17,MIGSYALSILDEAEVLVDLLTGGAPKVNKIFLITSSRRKRPDYYGELESCLKEMDLNLEIITVDDVSNFFEVYLILEKICELEGTPKWVNVGSGHGIMLSALAVHAFIKDALLVAFDKEEKKVIVTDIKKLKRIKIYQKRYFELISELGEGEKTITELSKIFNLSRSAMSRRLKHMETLNIVVRKGTGRSNIPYVFKLTELGRKLL,soluble
18,MIHITSQACFLWHTTINKICNRPMFNPLTIRFWGVRGSIPCPGSHTVRYGGNTPCVEIQANGQRIILDGGTGLRVLGEHLMGQQPVTAHLFFTHTHWDHIQGFPFFQPAFVPGNQFHIYAVPGKNGQGIERRLNDQMLHPNFPVPLQIMGGDLRFYDLEVGERVHLGDGVVVSNEALNHPGGGVGYRVSWQGIHVAYITDTEHLPDRLHPGAFALADHADVMIYDATYTDEEYYHPQQSKVGWGHSTWQEAVKLAQAAQVKQLILFHHDPSHDDDCLDRIGELARAQFPQTLLAREGLIISVYPNVIHFPATPQASLEHHHHHH,not soluble
19,MIHSLFLINCSGDIFLEKHWKSVVSQSVCDYFFEAQEKAADVENVPPVISTPHHYLISIYRDKLFFVSVIQTEVPPLFVIEFLHRVADTFQDYFGECSEAAIKDNVVIVYELLEEMLDNGFPLATESNILKELIKPPTILRSVVNSITGSSNVGDTLPTGQLSNIPWRRAGVKYTNNEAYFDVVEEIDAIIDKSGSTVFAEIQGVIDACIKLSGMPDLSLSFMNPRLLDDVSFHPCIRFKRWESERVLSFIPPDGNFRLISYRVSSQNLVAIPVYVKHSISFKENSSCGRFDITIGPKQNMGKTIEGITVTVHMPKVVLNMNLTPTQGSYTFDPVTKVLTWDVGKITPQKLPSLKGLVNLQSGAPKPEENPSLNIQFKIQQLAISGLKVNRLDMYGEKYKPFKGVKYVTKAGKFQVRT,soluble
20,MIHVREFQASDSDVVLHLLDLKDIINSSSFSEKVFQLSESGDFLGLVAEANQSGKHQVVGCAFLRLLETISRGLHCQIEELAIDKAWLHQGVGKSLMETATSWAKERGVGDIYVDSPYASIAVKEGIDSVFVRDEVLEVAQQYEAEKEELQESLKKQYNTTISKLEKEYEAKKQQQDETIHNLQTQLEDATQYLEEQQAEENELLNIDPSSPRNHTGPYPRGRGFWGTLCFPIRKTCGPGSCLRLPSGPASVRGSTDRSN,soluble
21,MIIGIDVGGTNTDAAIVSDEIKTIKLPNEAGIGGILKEISKEANLIEEKVVVSTSWPLNLIISKFSESRTLSLVIPGPGLNYSEYGEVLKGYVNHRGDVVEDIDEYEIAAIFRENSYDNVAISSKFSVRNGSLEDRVAEIVRNYVEDYRIALSHYAGGMNYPARIHTTVVNAKIRETVYRLTELIKAYAGDFYYFKGDGGIVPYTIALNNPSELYNSSPAAVALGAVYLTGEKNALVVDIGGTSTDFVEVIDGMPKIVEGIELAGRKTLIRCVDSVSIPFGGDSVVENGKLVPVCSKPIAFGGESFTLTDALNCAGYEIGDYRSSRKYECDVEKALNQFVSLAATTVREIGCKKIVGTGYLAPYLIPEVAKAAGVEYVIPDHYESANAVGVAVSRVSLTLYVRIDTEKCFAAYNGHTESCPFKPGSLPDDEQILEVAKEKVVEVAKKFGASEEELGKVRTVYFNSFTVVRGGMKRGVIADVIVQIEPGIRYGGLAAALEHHHHHH,not soluble
22,MIIIQLNERQLKIIDIVKENEPITSESIASSLNVTRATLRSDLAILTMTGILDARPKVGYFYSGVSEINLIGKSVKEKTVEDIMSMPVLAKKDESIYDVIVTMFLSDVGSIVIIDENEELCGVVSRKDLLKATIGGSDINKMPIGMIMTRTPNVVTLTKGASVLLASRKIIEHEVDSIPIVEYKGEDKNHMRVVGRISKTNITKLFLEIVDN,not soluble
